The results in this text go back to patent US20030113787A1 (Takeda / Millennium, published 2003).

The chains are these.
B1: CARD-11-CARD fused to the NF-kB activation domain (pCMV-CARD-11/AD) (other, mouse)
chain: SPMLLPSGQISNQALALAPSSAPVLAQTMVPSSAMVPLAQPPAPAPVLTPGPPQSLSAPVPKSTQAGEGTLSEALLHLQFDADEDLGALLGNSTDPGVFTDLASVDNSEFQQLLNQGVSMSHSTAEPMLMEYPEAITRLVTGSQRPPDPAPTPLGTSGLPNGLSGDEDFSSIADMDFSALLSQISSEEDALWENVECNRHMLSRYINPAKLTPYLRQCKVIDEQDEDEVLNAPMLPSKINRAGRLLDILHTKGQRGYVVFLESLEFYYPELYKLVTGKE
B5: Bcl-10-CARD/BD (other, UniProt P04386 1-147, looked up)
chain: MKLLSSIEQACDICRLKKLKCSKEKPKCAKCLKNNWECRYSPKTKRSPLTRAHLTEVESRLERLEQLFLLIFPREDLDMILKMDSLQDIKALLTGLFVQDNVNKDAVTDRLASVETDMPLTLRQHRISATSSSEESSNKGQRQLTVSMEPTAPSLTEEDLTEVKKDALENLRVYLCEKIIAERHFDHLRAKKILSREDTEEISCRTSSRKRAGKLLDYLQENPKGLDTLVESIRREKTQNFLIQKITDEVL
notes: range 1-147;range 1-104; Two-hybrid construct in pCMV-BD; also called CARD of Bcl-10; CARD of Bcl10
B7: CARD-9-CARD/AD (other, mouse)
chain: SPMLLPSGQISNQALALAPSSAPVLAQTMVPSSAMVPLAQPPAPAPVLTPGPPQSLSAPVPKSTQAGEGTLSEALLHLQFDADEDLGALLGNSTDPGVFTDLASVDNSEFQQLLNQGVSMSHSTAEPMLMEYPEAITRLVTGSQRPPDPAPTPLGTSGLPNGLSGDEDFSSIADMDFSALLSQISSMSDYENDDECWNVLEGFRVTLTSVIDPSRITPYLRQCKVLNPDDEEQVLSDPNLVIRKRKVGVLLDILQRTGHKGYVAFLESLELYYPQLYKKVTGKEPARVFSMIIDAS

Experiment [1] addresses Bcl-10 dominant negative deletion mutant (amino acids 1-104) (UniProt O95999). As to the kind of experiment: cell-based or functional assay.
In the experiment “Bcl-10-CARD/BD” the target is B5. Nature of the experiment: cell-based or functional assay.
The target of experiment [2] is B1. Nature of the experiment: mammalian two-hybrid, 293T cells. On the procedure:
(§1) For the additional mammalian two-hybrid assays, 293T cells in 6-well plates (35-mm wells) were transfected with the following plasmids: 750 ng of pCMV-CARD-9/AD, 750 ng of pCMV-CARD/BD, 250 ng of pFR-Luc firefly reporter (Stratagene), and 250 ng of pRL-TK renilla reporter (Promega). For NF-?B assays, 293T cells were transfected with the following plasmids: 900 ng of pNF-kB luciferase reporter (Stratagene), 100 ng of pRL-TK renilla reporter (Promega) and 1000 ng of indicated expression plasmids. Cells were harvested 24 h after transfection, and firefly luciferase activity was determined using the Dual-Luciferase Reporter Assay System (Promega). In addition, renilla luciferase activity was determined and used to normalize transfection efficiencies.
(§2) To identify the binding partners of CARD-11, a mammalian two-hybrid analysis was performed using the CARD domains of 15 known proteins. For mammalian two-hybrid assays, 293T cells in 6-well plates (35-mm wells) were transfected with the following plasmids: 750 ng of pCMV-CARD-11/AD, 750 ng of pCMV-BD fused to individual CARD domains, 250 ng of pFR-Luc firefly reporter (Stratagene), and 250 ng of pRL-TK renilla reporter (Promega). pCMV-CARD-11 /AD and pCMV-CARD/BD plasmids were constructed by inserting individual CARD domains into pCMV-CARD/AD and pCMV-BD, respectively (Stratagene): Bcl-10 (residues 1-104), ARC (residues 1-110), RICK (residues 417-540), CARD-4 (residues 1-1 19), ASC (residues 92-195), caspase-I (residues 1-110), caspase-2 (residues 1-122), caspase-4 (residues 1-108), caspase-9 (residues 1-111), caspase-11 (residues 1-122), caspase-12 (residues 1-121), IAP-1 (residues 423-543), IAP-2 (residues 450-557), Apaf-1 (residues 1-108) and RAIDD (residues 1 -108). Cells were harvested 24 hours after transfection, and firefly luciferase activity was determined using the Dual-Luciferase Reporter Assay System (Promega). In addition, renilla luciferase activity was determined and used to normalize transfection efficiencies.

The target of the experiment “CARD-9-CARD/AD” is B7. Nature of the experiment: mammalian two-hybrid, 293T cells. On the procedure: as §1, §2
A further experiment deals with T1, Bcl-10-CARD/AD (mouse, UniProt Q04207 364-549; O95999 1-104).
T1 sequence (looked up): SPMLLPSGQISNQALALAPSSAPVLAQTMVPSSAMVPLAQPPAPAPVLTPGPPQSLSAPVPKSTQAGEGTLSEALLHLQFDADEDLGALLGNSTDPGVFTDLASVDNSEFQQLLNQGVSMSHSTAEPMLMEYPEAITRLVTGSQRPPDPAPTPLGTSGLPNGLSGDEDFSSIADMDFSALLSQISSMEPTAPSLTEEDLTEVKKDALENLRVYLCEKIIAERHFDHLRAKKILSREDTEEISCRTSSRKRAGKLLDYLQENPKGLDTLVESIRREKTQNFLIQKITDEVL
Nature of the experiment: cell-based or functional assay.

Take “human CARD-10 (from UniProt Q9BWT7 1-1032)”: in experiment [1], the NF-κB activity (luciferase reporter) left with dominant negative Bcl-10 (times above background) was 10 and the NF-κB activity (luciferase reporter), reduction by dominant negative Bcl-10 was 35 fold.

In experiment [1], “human CARD-11 (from UniProt Q9BXL7 8-1154)” showed an NF-κB activity (luciferase reporter) left with dominant negative Bcl-10 (times above background) of 1.7 and an NF-κB activity (luciferase reporter), reduction by dominant negative Bcl-10 of 4 fold.

Consider B1, for which the “relative luciferase activity (mammalian two-hybrid reporter)” value with Bcl-10-CARD/BD turned out to be 17 fold.

B2: ARC CARD domain (residues 1-110) in pCMV-BD (other, UniProt P04386 1-147, looked up)
chain: MKLLSSIEQACDICRLKKLKCSKEKPKCAKCLKNNWECRYSPKTKRSPLTRAHLTEVESRLERLEQLFLLIFPREDLDMILKMDSLQDIKALLTGLFVQDNVNKDAVTDRLASVETDMPLTLRQHRISATSSSEESSNKGQRQLTVSMGNAQERPSETIDRERKRLVETLQADSGLLLDALLARGVLTGPEYEALDALPDAERRVRRLLLLVQGKGEAACQELLRCAQRTAGAPDPAWDWQHVGPGYRDRSYDPPCP
notes: range 1-147;range 1-110; Member of the two-hybrid CARD panel
On to B2, for which the binding result (in experiment [2]; with CARD-9-CARD/AD) was “no binding” each time.

B3: RICK CARD domain (residues 417-540) in pCMV-BD (other, UniProt P04386 1-147, looked up)
chain: MKLLSSIEQACDICRLKKLKCSKEKPKCAKCLKNNWECRYSPKTKRSPLTRAHLTEVESRLERLEQLFLLIFPREDLDMILKMDSLQDIKALLTGLFVQDNVNKDAVTDRLASVETDMPLTLRQHRISATSSSEESSNKGQRQLTVSAIINPLSTAGNSERLQPGIAQQWIQSKREDIVNQMTEACLNQSLDALLSRDLIMKEDYELVSTKPTRTSKVRQLLDTTDIQGEEFAKVIVQKLKDNKQMGLQPYPEILVVSRSPSLNLLQNKSM
notes: range 1-147;range 417-540; Member of the two-hybrid CARD panel
For the molecule B3, the binding result (in experiment [2]; with CARD-9-CARD/AD) was “no binding” throughout.

B4: ASC CARD domain (residues 92-195) in pCMV-BD (other, UniProt P04386 1-147, looked up)
chain: MKLLSSIEQACDICRLKKLKCSKEKPKCAKCLKNNWECRYSPKTKRSPLTRAHLTEVESRLERLEQLFLLIFPREDLDMILKMDSLQDIKALLTGLFVQDNVNKDAVTDRLASVETDMPLTLRQHRISATSSSEESSNKGQRQLTVSGSGAAPAGIQAPPQSAAKPGLHFIDQHRAALIARVTNVEWLLDALYGKVLTDEQYQAVRAEPTNPSKMRKLFSFTPAWNWTCKDLLLQALRESQSYLVEDLERS
notes: range 1-147;range 92-195; Member of the two-hybrid CARD panel
As to B4, the binding result (in experiment [2]; with CARD-9-CARD/AD) was “no binding” in each case.

For B5, the binding result with CARD-9-CARD/AD is recorded as “binds”.

B6: CARD-4 CARD domain (residues 1-119) in pCMV-BD (other, UniProt P04386 1-147, looked up)
chain: MKLLSSIEQACDICRLKKLKCSKEKPKCAKCLKNNWECRYSPKTKRSPLTRAHLTEVESRLERLEQLFLLIFPREDLDMILKMDSLQDIKALLTGLFVQDNVNKDAVTDRLASVETDMPLTLRQHRISATSSSEESSNKGQRQLTVSMEEQGHSEMEIIPSESHPHIQLLKSNRELLVTHIRNTQCLVDNLLKNDYFSAEDAEIVCACPTQPDKVRKILDLVQSKGEEVSEFFLYLLQQLADAYVDLRPWLLEIGFSPSLLTQSKV
notes: range 1-147;range 1-119; Member of the two-hybrid CARD panel
Turning to B6, the binding result (in experiment [2]; with CARD-9-CARD/AD) was “no binding” throughout.

For the molecule B7, the “relative luciferase activity (mammalian two-hybrid reporter)” value in the experiment with Bcl-10-CARD/BD was found to be 250 fold.

B8: RAIDD CARD domain (residues 1-108) in pCMV-BD (other, UniProt P04386 1-147, looked up)
chain: MKLLSSIEQACDICRLKKLKCSKEKPKCAKCLKNNWECRYSPKTKRSPLTRAHLTEVESRLERLEQLFLLIFPREDLDMILKMDSLQDIKALLTGLFVQDNVNKDAVTDRLASVETDMPLTLRQHRISATSSSEESSNKGQRQLTVSMEARDKQVLRSLRLELGAEVLVEGLVLQYLYQEGILTENHIQEINAQTTGLRKTMLLLDILPSRGPKAFDTFLDSLQEFPWVREKLKKAREEAMTDLPAGDRLTGIPS
notes: range 1-147;range 1-108; Member of the two-hybrid CARD panel
For the molecule B8, the binding result (in experiment [2]; with CARD-9-CARD/AD) was “no binding” in each case.

B9: CARD-9-CARD/BD (other, yeast)
chain: MKLLSSIEQACDICRLKKLKCSKEKPKCAKCLKNNWECRYSPKTKRSPLTRAHLTEVESRLERLEQLFLLIFPREDLDMILKMDSLQDIKALLTGLFVQDNVNKDAVTDRLASVETDMPLTLRQHRISATSSSEESSNKGQRQLTVSMSDYENDDECWNVLEGFRVTLTSVIDPSRITPYLRQCKVLNPDDEEQVLSDPNLVIRKRKVGVLLDILQRTGHKGYVAFLESLELYYPQLYKKVTGKEPARVFSMIIDAS
Regarding B9, the “luciferase activity (mammalian two-hybrid reporter)” value in the experiment with Bcl-10-CARD/AD was 75 fold.

B10: caspase-12 CARD domain (residues 1-121) in pCMV-BD (other, UniProt P04386 1-147, looked up)
chain: MKLLSSIEQACDICRLKKLKCSKEKPKCAKCLKNNWECRYSPKTKRSPLTRAHLTEVESRLERLEQLFLLIFPREDLDMILKMDSLQDIKALLTGLFVQDNVNKDAVTDRLASVETDMPLTLRQHRISATSSSEESSNKGQRQLTVSMAARRTHERDPIYKIKGLAKDMLDGVFDDLVEKNVLNGDELLKIGESASFILNKAENLVENFLEKTDMAGKIFAGHIANSQEQLSLQFSNDEDDGPQKICTPSSPSESKRKVEDDEMEVNA
notes: range 1-147;range 1-121; Member of the two-hybrid CARD panel
B10: the binding result (in experiment [2]; with CARD-9-CARD/AD) was “no binding” throughout.

B11: Apaf-1 CARD domain (residues 1-108) in pCMV-BD (other, UniProt P04386 1-147, looked up)
chain: MKLLSSIEQACDICRLKKLKCSKEKPKCAKCLKNNWECRYSPKTKRSPLTRAHLTEVESRLERLEQLFLLIFPREDLDMILKMDSLQDIKALLTGLFVQDNVNKDAVTDRLASVETDMPLTLRQHRISATSSSEESSNKGQRQLTVSMDAKARNCLLQHREALEKDIKTSYIMDHMISDGFLTISEEEKVRNEPTQQQRAAMLIKMILKKDNDSYVSFYNALLHEGYKDLAALLHDGIPVVSSSSGKDSVSGITS
notes: as for B8
B11: the binding result (in experiment [2]; with CARD-9-CARD/AD) was “no binding” in each case.
